The source of these data is the supplement of paper PMC10126150.

The data set deals with ATP. Put plainly: switch fluorescence ratio, 500 uM ATP over buffer (Cy3 cluster intensity, sum of 5 cycles each) (fold (ratio)); higher = stronger signal-on switching upon ATP binding; sequences stand for … in TCGTCGGCAGCGTCAGATGTGTATAAGAGACAGTTTTTTTTTTTTTTTTTTTTTTTTT…TC. Conditions: aptamer strand: ATP DNA aptamer (quencher-CACCTGGGGGAGTATTGCGGAGGAAGG + anchor), 100 nM annealed; ATP concentration: 500 uM. The essentials:
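Between each of five buffer/ATP cycles, the flow-cell was stripped with NaOH and re-annealed. Each cycle imaged Cy3-labelled switching-strand clusters, annealed to 100 nM quencher-labelled ATP aptamer on a modified Illumina MiSeq flow-cell, first in selection buffer and then after 15 min with 500 uM ATP at 22 °C. The fluorescence ratio is summed target-cycle over summed buffer-cycle Cy3 intensity per cluster, averaged per switch-domain sequence, with clusters outside 100-1000 RFU excluded.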

± gives the standard deviation of the averaged measurements.
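Further: ATP exposure 15 min at 22 °C before imaging.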

With ATGTGATCGC, the switch fluorescence ratio was 0.986 ± 0.042.

On to ATGTGCATGT, for which the switch fluorescence ratio amounted to 0.986 ± 0.024.

With ATGTGGACAA, the switch fluorescence ratio came out at 1.02 ± 0.021.

For ATGTGGAGAT, the switch fluorescence ratio is 0.977 ± 0.059.

As to ATGTGGCCAC, the switch fluorescence ratio amounted to 1.06 ± 0.053.

Turning to ATGTGGGGGA, the switch fluorescence ratio came to 1.02 ± 0.015.

Regarding ATGTGGGGTA, the switch fluorescence ratio was 0.985 ± 0.026.

In the case of ATGTGGTGCA, the switch fluorescence ratio was 1.02 ± 0.0034.

ATGTGGTTAG: the switch fluorescence ratio was 0.994 ± 0.03.

ATGTGTAAAA: the switch fluorescence ratio worked out at 0.99 ± 0.013.

With ATGTGTCAAG, the switch fluorescence ratio came to 0.9675 ± 0.0065.

For ATGTGTCTGT, the switch fluorescence ratio came to 1.01 ± 0.017.

For ATGTGTGAAA, the switch fluorescence ratio came to 1 ± 0.073.

For ATGTGTGGGA, the switch fluorescence ratio was 1.029 ± 0.0019.

For the sequence ATGTGTGGGC, the switch fluorescence ratio came out at 1.01 ± 0.021.

As to ATGTGTGTA, the switch fluorescence ratio came out at 1 ± 0.021.

With ATGTGTTGCG, the switch fluorescence ratio amounted to 1 ± 0.045.

For the sequence ATGTGTTTTT, the switch fluorescence ratio was found to be 0.98 ± 0.036.

ATGTTAGTTG: the switch fluorescence ratio came out at 0.965 ± 0.041.

On to ATGTTATCGA, for which the switch fluorescence ratio worked out at 1.008 ± 0.0074.

For the sequence ATGTTCGGGC, the switch fluorescence ratio came to 1.04 ± 0.035.

As to ATGTTCTATA, the switch fluorescence ratio was 0.97751 ± 0.00084.

With ATGTTCTGGG, the switch fluorescence ratio was 1.04 ± 0.029.

As for ATGTTGACCG, the switch fluorescence ratio is 1.03 ± 0.044.

Turning to ATGTTGATAC, the switch fluorescence ratio amounted to 1.07 ± 0.0013.

As to ATGTTGATCC, the switch fluorescence ratio came to 1.03 ± 0.03.

Regarding ATGTTGGAAT, the switch fluorescence ratio stood at 1.04 ± 0.028.

ATGTTGGCGT: the switch fluorescence ratio was determined as 1 ± 0.011.

As for ATGTTGGTAG, the switch fluorescence ratio was found to be 0.985 ± 0.026.

For ATGTTGTCAG, the switch fluorescence ratio turned out to be 0.987 ± 0.027.

For the sequence ATGTTGTCTC, the switch fluorescence ratio amounted to 1.001 ± 0.0079.

Turning to ATGTTTAAG, the switch fluorescence ratio was 1.012 ± 0.0094.

ATGTTTCAGG: the switch fluorescence ratio is 0.997 ± 0.018.

In the case of ATGTTTCTGG, the switch fluorescence ratio stood at 0.965 ± 0.011.

On to ATGTTTGAGT, for which the switch fluorescence ratio is 1.01 ± 0.026.

As for ATGTTTGGAC, the switch fluorescence ratio came to 1.01 ± 0.02.

ATGTTTGGTA: the switch fluorescence ratio amounted to 1.003 ± 0.0015.

For ATGTTTTAAC, the switch fluorescence ratio is 1.02 ± 0.039.

Turning to ATGTTTTATG, the switch fluorescence ratio is 0.992 ± 0.042.

Take ATGTTTTTCT: the switch fluorescence ratio worked out at 0.963 ± 0.0029.

Turning to ATTAAAAAAG, the switch fluorescence ratio came out at 0.985 ± 0.028.

Take ATTAAAAAAT: the switch fluorescence ratio stood at 0.98 ± 0.089.

For the sequence ATTAAAACGG, the switch fluorescence ratio came out at 1.07 ± 0.098.

In the case of ATTAAAAGTT, the switch fluorescence ratio came out at 0.984 ± 0.038.

For ATTAAAGGGG, the switch fluorescence ratio turned out to be 1 ± 0.023.

In the case of ATTAAAGGTC, the switch fluorescence ratio is 1 ± 0.02.

Regarding ATTAAAGTTT, the switch fluorescence ratio was found to be 1.04 ± 0.034.

As to ATTAACTGAA, the switch fluorescence ratio came out at 1.04 ± 0.012.

On to ATTAACTGGG, for which the switch fluorescence ratio was 1.01 ± 0.023.

As for ATTAAGAGGC, the switch fluorescence ratio amounted to 1.02 ± 0.06.

Consider ATTAAGCAAG, for which the switch fluorescence ratio was 1.04 ± 0.015.

Consider ATTAAGCAT, for which the switch fluorescence ratio is 1.04 ± 0.053.

In the case of ATTAAGGGGT, the switch fluorescence ratio amounted to 1.07 ± 0.12.

As for ATTAAGTCGT, the switch fluorescence ratio was determined as 0.982 ± 0.033.

For ATTAATATCA, the switch fluorescence ratio worked out at 0.9629 ± 0.0017.

On to ATTAATATGG, for which the switch fluorescence ratio is 1.02 ± 0.015.

With ATTAATGTGT, the switch fluorescence ratio was 0.9987 ± 0.0011.

In the case of ATTACGACTG, the switch fluorescence ratio was found to be 1.06 ± 0.031.

ATTACGGGGT: the switch fluorescence ratio was 1.01 ± 0.044.

With ATTACGTATT, the switch fluorescence ratio is 1.103 ± 0.0095.

Regarding ATTACGTGTA, the switch fluorescence ratio worked out at 1.012 ± 0.0039.

Regarding ATTACGTTGG, the switch fluorescence ratio is 0.998 ± 0.024.

Regarding ATTACGTTTT, the switch fluorescence ratio worked out at 0.989 ± 0.039.

For ATTACTAGTG, the switch fluorescence ratio stood at 1.03 ± 0.014.

On to ATTACTTACA, for which the switch fluorescence ratio was 1.308 ± 0.0037.

As to ATTAGAAAAA, the switch fluorescence ratio was 0.904 ± 0.019.

In the case of ATTAGAACGG, the switch fluorescence ratio was determined as 1.01 ± 0.022.
